Measurements taken from US20250129150A1 (APOGEE THERAPEUTICS, published 2025).
Residue numbers refer to the chain shown, from its start.

T1: Recombinant Cynomolgus IL-13 Protein, His Tag (SINO BIOLOGICAL, Cat. 11057-C07H) (cynomolgus monkey, UniProt Q5I6E4 19-132 (Macaca thibetana entry))
T1 construct: also called Cyno IL-13; cynomolgus monkey IL-13
T1 chain: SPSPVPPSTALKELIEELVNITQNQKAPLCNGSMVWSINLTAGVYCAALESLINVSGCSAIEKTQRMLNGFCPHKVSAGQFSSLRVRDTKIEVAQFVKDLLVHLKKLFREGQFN

B1: Construct 144 (antibody, human IgG1, kappa, L234A L235A)
heavy: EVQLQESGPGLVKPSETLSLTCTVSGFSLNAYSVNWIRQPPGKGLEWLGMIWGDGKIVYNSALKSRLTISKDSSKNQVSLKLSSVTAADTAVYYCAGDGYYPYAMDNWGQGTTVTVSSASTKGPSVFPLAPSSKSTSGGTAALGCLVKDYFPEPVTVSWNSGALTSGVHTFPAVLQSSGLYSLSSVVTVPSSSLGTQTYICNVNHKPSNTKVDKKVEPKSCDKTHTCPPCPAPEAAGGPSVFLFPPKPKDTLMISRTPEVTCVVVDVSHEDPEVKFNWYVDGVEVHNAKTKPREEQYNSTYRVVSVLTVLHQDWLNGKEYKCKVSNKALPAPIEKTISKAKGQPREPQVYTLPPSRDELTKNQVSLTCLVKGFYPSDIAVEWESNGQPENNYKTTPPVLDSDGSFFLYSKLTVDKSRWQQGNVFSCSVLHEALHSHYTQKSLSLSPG
light: DIQLTQSPSSLSASVGDRVTITCRASKSVDSYGNSFMHWYQQKPGKAPKLLIYLASELESGVPSRFSGSGSGTDFTLTISSLQPEDFATYYCQQNNEDPRTFGGGTKVEIKRTVAAPSVFIFPPSDEQLKSGTASVVCLLNNFYPREAKVQWKVDNALQSGNSQESVTEQDSKDSTYSLSSTLTLSKADYEKHKVYACEVTHQGLSSPVTKSFNRGEC
notes: also called HC1; LC6_m8
B2: Construct 140 (antibody, human IgG1, kappa, L234A L235A)
heavy: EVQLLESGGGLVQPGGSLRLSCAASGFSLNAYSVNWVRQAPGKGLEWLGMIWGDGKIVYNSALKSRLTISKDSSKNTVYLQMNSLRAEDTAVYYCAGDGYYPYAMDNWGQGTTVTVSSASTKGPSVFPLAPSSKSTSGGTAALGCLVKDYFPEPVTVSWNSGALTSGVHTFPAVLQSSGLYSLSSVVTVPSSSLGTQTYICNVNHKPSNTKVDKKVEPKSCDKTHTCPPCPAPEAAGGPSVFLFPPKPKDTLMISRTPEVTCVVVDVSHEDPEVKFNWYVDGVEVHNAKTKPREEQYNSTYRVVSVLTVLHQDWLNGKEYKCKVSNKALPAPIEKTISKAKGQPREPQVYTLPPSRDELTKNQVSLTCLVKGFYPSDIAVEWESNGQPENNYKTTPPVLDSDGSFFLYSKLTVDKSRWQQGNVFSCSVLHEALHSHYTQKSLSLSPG
light: B1 light
notes: also called HC5; LC6_m8
B3: Construct 142 (antibody, human IgG4, kappa)
heavy: EVQLQESGPGLVKPSETLSLTCTVSGFSLNAYSVNWIRQPPGKGLEWLGMIWGDGKIVYNSALKSRLTISKDSSKNQVSLKLSSVTAADTAVYYCAGDGYYPYAMDNWGQGTTVTVSSASTKGPSVFPLAPCSRSTSESTAALGCLVKDYFPEPVTVSWNSGALTSGVHTFPAVLQSSGLYSLSSVVTVPSSSLGTKTYTCNVDHKPSNTKVDKRVESKYGPPCPSCPAPEFLGGPSVFLFPPKPKDTLYITREPEVTCVVVDVSQEDPEVQFNWYVDGVEVHNAKTKPREEQFNSTYRVVSVLTVLHQDWLNGKEYKCKVSNKGLPSSIEKTISKAKGQPREPQVYTLPPSQEEMTKNQVSLTCLVKGFYPSDIAVEWESNGQPENNYKTTPPVLDSDGSFFLYSRLTVDKSRWQEGNVFSCSVMHEALHNHYTQKSLSLSLGK
light: B1 light
notes: also called HC1; LC6_m8
B4: Construct 128 (antibody, human IgG4, kappa)
heavy: QVTLRESGPALVKPTQTLTLTCTVSGFSLSAYSVNWIRQPPGKALEWLAMIWGDGKIVYNSALKSRLTISKDTSKNQVVLTMTNMDPVDTATYYCAGDGYYPYAMDNWGQGSLVTVSSASTKGPSVFPLAPCSRSTSESTAALGCLVKDYFPEPVTVSWNSGALTSGVHTFPAVLQSSGLYSLSSVVTVPSSSLGTKTYTCNVDHKPSNTKVDKRVESKYGPPCPSCPAPEFLGGPSVFLFPPKPKDTLYITREPEVTCVVVDVSQEDPEVQFNWYVDGVEVHNAKTKPREEQFNSTYRVVSVLTVLHQDWLNGKEYKCKVSNKGLPSSIEKTISKAKGQPREPQVYTLPPSQEEMTKNQVSLTCLVKGFYPSDIAVEWESNGQPENNYKTTPPVLDSDGSFFLYSRLTVDKSRWQEGNVFSCSVMHEALHNHYTQKSLSLSLGK
light: DIVMTQSPDSLSVSLGERATINCRASKSVDSYGNSFMHWYQQKPGQPPKLLIYLASNLESGVPDRFSGSGSGTDFTLTISSLQAEDVAVYYCQQNNEDPRTFGGGTKVEIKRTVAAPSVFIFPPSDEQLKSGTASVVCLLNNFYPREAKVQWKVDNALQSGNSQESVTEQDSKDSTYSLSSTLTLSKADYEKHKVYACEVTHQGLSSPVTKSFNRGEC
notes: also called Lebrikizumab-HC; Lebrikizumab-LC
B5: Construct 139 (antibody, human IgG4, kappa)
heavy: EVQLLESGGGLVQPGGSLRLSCAASGFSLNAYSVNWVRQAPGKGLEWLGMIWGDGKIVYNSALKSRLTISKDSSKNTVYLQMNSLRAEDTAVYYCAGDGYYPYAMDNWGQGTTVTVSSASTKGPSVFPLAPCSRSTSESTAALGCLVKDYFPEPVTVSWNSGALTSGVHTFPAVLQSSGLYSLSSVVTVPSSSLGTKTYTCNVDHKPSNTKVDKRVESKYGPPCPSCPAPEFLGGPSVFLFPPKPKDTLMISRTPEVTCVVVDVSQEDPEVQFNWYVDGVEVHNAKTKPREEQFNSTYRVVSVLTVLHQDWLNGKEYKCKVSNKGLPSSIEKTISKAKGQPREPQVYTLPPSQEEMTKNQVSLTCLVKGFYPSDIAVEWESNGQPENNYKTTPPVLDSDGSFFLYSRLTVDKSRWQEGNVFSCSVLHEALHSYTQKSLSLSLGK
light: B1 light
notes: also called HC5; LC6_m8
B6: Construct 143 (antibody, human IgG4, kappa)
heavy: EVQLQESGPGLVKPSETLSLTCTVSGFSLNAYSVNWIRQPPGKGLEWLGMIWGDGKIVYNSALKSRLTISKDSSKNQVSLKLSSVTAADTAVYYCAGDGYYPYAMDNWGQGTTVTVSSASTKGPSVFPLAPCSRSTSESTAALGCLVKDYFPEPVTVSWNSGALTSGVHTFPAVLQSSGLYSLSSVVTVPSSSLGTKTYTCNVDHKPSNTKVDKRVESKYGPPCPSCPAPEFLGGPSVFLFPPKPKDTLMISRTPEVTCVVVDVSQEDPEVQFNWYVDGVEVHNAKTKPREEQFNSTYRVVSVLTVLHQDWLNGKEYKCKVSNKGLPSSIEKTISKAKGQPREPQVYTLPPSQEEMTKNQVSLTCLVKGFYPSDIAVEWESNGQPENNYKTTPPVLDSDGSFFLYSRLTVDKSRWQEGNVFSCSVLHEALHSYTQKSLSLSLGK
light: B1 light
notes: also called HC1; LC6_m8
B7: Construct 138 (antibody, human IgG4, kappa)
heavy: EVQLLESGGGLVQPGGSLRLSCAASGFSLNAYSVNWVRQAPGKGLEWLGMIWGDGKIVYNSALKSRLTISKDSSKNTVYLQMNSLRAEDTAVYYCAGDGYYPYAMDNWGQGTTVTVSSASTKGPSVFPLAPCSRSTSESTAALGCLVKDYFPEPVTVSWNSGALTSGVHTFPAVLQSSGLYSLSSVVTVPSSSLGTKTYTCNVDHKPSNTKVDKRVESKYGPPCPSCPAPEFLGGPSVFLFPPKPKDTLYITREPEVTCVVVDVSQEDPEVQFNWYVDGVEVHNAKTKPREEQFNSTYRVVSVLTVLHQDWLNGKEYKCKVSNKGLPSSIEKTISKAKGQPREPQVYTLPPSQEEMTKNQVSLTCLVKGFYPSDIAVEWESNGQPENNYKTTPPVLDSDGSFFLYSRLTVDKSRWQEGNVFSCSVMHEALHNHYTQKSLSLSLGK
light: B1 light
notes: also called HC5; LC6_m8
B8: Construct 132 (antibody, human IgG1, kappa, L234A L235A)
heavy: EVQLLESGGGLVQPGGSLRLSCAASGFSLNAYSVNWVRQAPGKGLEWLGMIWGDGKIVYNSALKSRLTISKDSSKNTVYLQMNSLRAEDTAVYYCAGDGYYPYAMDNWGQGTTVTVSSASTKGPSVFPLAPSSKSTSGGTAALGCLVKDYFPEPVTVSWNSGALTSGVHTFPAVLQSSGLYSLSSVVTVPSSSLGTQTYICNVNHKPSNTKVDKKVEPKSCDKTHTCPPCPAPEAAGGPSVFLFPPKPKDTLYITREPEVTCVVVDVSHEDPEVKFNWYVDGVEVHNAKTKPREEQYNSTYRVVSVLTVLHQDWLNGKEYKCKVSNKALPAPIEKTISKAKGQPREPQVYTLPPSRDELTKNQVSLTCLVKGFYPSDIAVEWESNGQPENNYKTTPPVLDSDGSFFLYSKLTVDKSRWQQGNVFSCSVMHEALHNHYTQKSLSLSPG
light: B1 light with E57N
notes: also called HC5; LC6
B9: Tralokinumab (antibody, V domains shown)
VH: QVQLVQSGAEVKKPGASVKVSCKASGYTFTNYGLSWVRQAPGQGLEWMGWISANNGDTNYGQEFQGRVTMTTDTSTSTAYMELRSLRSDDTAVYYCARDSSSSWARWFFDLWGRGTLVTVSS
VL: SYVLTQPPSVSVAPGKTARITCGGNIIGSKLVHWYQQKPGQAPVLVIYDDGDRPSGIPERFSGSNSGNTATLTISRVEAGDEADYYCQVWDTGSDPVVFGGGTKLTVL

These binders were tested against T2, hIL-13 (human, UniProt P35225 35-146, limits assumed) (assay: ELISA).
T2 construct: IL-13 as used in the cell assays, the ELISA, the binning study and HDX-MS/XL-MS; also called human IL-13; Hu IL-13
T2 sequence (P35225 other isoform, or with tags, fused parts or gaps limits assumed): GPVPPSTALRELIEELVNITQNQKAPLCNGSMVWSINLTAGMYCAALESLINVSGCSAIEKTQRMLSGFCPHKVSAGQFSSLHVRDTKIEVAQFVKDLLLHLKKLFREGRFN

In order of rising Kd:
1. B1  0.014 nM
2. B2  0.02 nM
3. B3  0.054 nM
4. B4  0.067 nM

Each binder was assayed against T2, hIL-13 (assay: cell-based or functional assay).

In order of rising “TARC Inhibition IC50 (A549 cells)” value:
1. B8  0.87 nM
2. B1  0.91 nM
3. B6  0.92 nM
4. B3  0.92 nM
5. B2  0.94 nM
6. B7  0.97 nM
7. B4  1.01 nM
8. B5  1.02 nM
9. B9  4.14 nM

Molecular target: T2, hIL-13
Experiment: cell-based or functional assay
Remark: another data set of the same source

In order of rising “pSTAT6 Inhibition IC50 (HT-29 cells)” value:
1. B7  0.19 nM
2. B5  0.28 nM
3. B4  0.28 nM
4. B3  0.29 nM
5. B1  0.3 nM
6. B2  0.33 nM
7. B6  0.36 nM
8. B8  0.37 nM
9. B9  0.41 nM

Molecular target: T2, hIL-13
Experiment: cell-based or functional assay
Remark: another data set of the same source

In order of falling “TF-1 Proliferation Inhibition IC50” value:
1. B9  0.59 nM
2. B7  0.23 nM
3. B5  0.2 nM
4. B3  0.2 nM
5. B4  0.2 nM
6. B1  0.17 nM
7. B6  0.17 nM
8. B2  0.14 nM
9. B8  0.13 nM

Molecular target: T1, Recombinant Cynomolgus IL-13 Protein, …
Experiment: SPR (Biacore 8K), mAb captured on Protein G chip, IL-13 as analyte
Description: (§1) Samples were injected in a multi-cycle manner over freshly captured mAb, by regenerating the capture surfaces with injection of glycine pH 1.5 for 30 sec at a flow rate of 30 μL/min. The data was processed and analyzed with Biacore Insight Evaluation Software Version 2.0.15.12933 (GE Healthcare) as follows. […] The responses from the two buffer blank injections were then subtracted from the reference subtracted data (2-1) to yield double-referenced data, which were fit to an 1:1 binding model to determine the apparent association (ka) and dissociation rate constants (kd). Their ratio provided the apparent equilibrium dissociation constant or affinity constant (KD=kd/ka).

In order of rising Kd:
1. B1  0.228 nM
2. B2  0.252 nM
3. B4  0.298 nM
4. B3  0.326 nM
5. B8  0.331 nM
6. B7  0.348 nM
7. B6  0.685 nM
8. B5  0.705 nM
9. B9  1.48 nM

Each binder was assayed against T3, Recombinant Human IL-13 Protein, His Tag (Acro Cat. IL3-H52H4) (human, UniProt P35225 35-146) in the same assay as above.
T3 construct: Bought protein; also called Hu IL-13; not shown: His Tag
Description: as §1

T3 sequence (P35225 other isoform, or with tags, fused parts or gaps limits assumed): as above

In order of rising Kd:
1. B1  0.0263 nM
2. B2  0.0475 nM
3. B4  0.0915 nM
4. B7  0.108 nM
5. B3  0.108 nM
6. B5  0.114 nM
7. B9  0.116 nM
8. B6  0.119 nM
9. B8  0.135 nM

The binders below were run against biotinylated hIL-13 (human, UniProt P35225 35-146, limits assumed, biotinylated (site not stated)) (assay: FACS; blockade of biotinylated hIL-13 (0.05 ug/mL) binding to HEK293 cells expressing hIL-13Rα1/hIL-4Rα).
Description: Briefly, HEK293 previously transduced to stably express both hIL-13Rα and hIL-4Rα were cultured and harvested. Cells were seeded at 200,000 cells in 100 uL per well. Cells were washed and the supernatant was discarded. […] The cells were stained in this mixture at 4° C. for 1 hour. […] Cells were incubated at 4° C. for 1 hour, protected from light. Cells were then washed and the median fluorescence intensity (MFI) of cells in each well were recorded by FACS using a BD FACSCanto II. Subsequent data were analyzed using GraphPad Prism.

Sequence of biotinylated hIL-13 (P35225 other isoform, or with tags, fused parts or gaps limits assumed): as above

In order of rising IC50:
1. B6  0.74 nM
2. B3  0.77 nM
3. B1  0.94 nM
4. B4  0.95 nM
5. B8  0.99 nM
6. B7  1.01 nM
7. B5  1.09 nM
